Laboratory results from paper PMC3724350.

Legend:
[1] = target: Shewanella oneidensis diheme cytochrome c peroxidase, maltose-binding protein fusion (Shewanella oneidensis); assay: SEC
[2] = target: Shewanella oneidensis diheme cytochrome c peroxidase, tag-free (Shewanella oneidensis); assay: SEC

stoichiometry N [1] | stoichiometry N [2] | Substance
2 | – | Shewanella oneidensis diheme cytochrome c peroxidase, maltose-binding protein fusion (enzyme)
– | 2 | Shewanella oneidensis diheme cytochrome c peroxidase, tag-free (enzyme)
